Reference: US20070243198A1 (ERA BIOTECH S A, published 2007)
Blank lines part the entries; values can stand above or below the molecule they belong to.

Assays:
[1] = target: human EGF receptor on MDA-MB231 breast cancer cells (human) (UniProt P00533); experiment: cell-based or functional assay
[2] = target: T1, hGH binding protein provided by the kit (Active Bioactive Human Growth Hormone ELISA DSL-10-11100, Diagnostic … (UniProt P10912 19-256)); experiment: bioactivity ELISA based on binding to the kit's hGH binding protein (DSL-10-11100)
T1 sequence (looked up): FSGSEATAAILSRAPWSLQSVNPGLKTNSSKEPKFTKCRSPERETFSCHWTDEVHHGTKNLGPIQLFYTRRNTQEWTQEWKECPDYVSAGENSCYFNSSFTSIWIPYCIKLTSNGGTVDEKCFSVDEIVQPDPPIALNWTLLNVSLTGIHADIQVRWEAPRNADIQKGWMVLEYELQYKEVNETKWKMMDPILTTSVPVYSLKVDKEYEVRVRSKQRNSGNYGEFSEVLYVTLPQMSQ

- % proliferation with respect to Deprived cells (Mean), radioactive thymidine incorporation, 1.2 ng/mL [1]: 146%
Molecule: RX3-EGF fusion protein

- binding result [2]: no binding
B1: RX3 protein without a fusion partner (other)
chain: THTSGGCGCQPPPPVHLPPPVHLPPPVHLPPPVHLPPPVHLPPPVHLPPPVHVPPPVHLPPPPCHYPTQPPRPQPHPQPHPCPCQQPHPSPCQY
notes: also called control RX3 RPBLA preparations; isolated RX3 protein
